Reference: PMC11169542, “A probe for NIR-II imaging and multimodal analysis of early Alzheimer’s disease by targeting CTGF” (Nature Communications, 2024)
Ends that are not written are not given here.

Experiments:
[1] = target: T1, CTGF (Mus musculus, UniProt P29268); assay: DGC fluorescence labelling of AD mouse brain sections in vitro; parameters: species or system APP/PS1 and wild-type C57BL/6J mice; settings: 200 μM DGC 4 °C overnight
T1 construct: brain sections of the age-matched wild-type C57BL/6J mice were used as controls; from tissue; host or cells: brain of APP/PS1 transgenic and wild-type C57BL/6J mice (sections, living animal, perfused isolated brain)
T1 sequence (P29268 26-348): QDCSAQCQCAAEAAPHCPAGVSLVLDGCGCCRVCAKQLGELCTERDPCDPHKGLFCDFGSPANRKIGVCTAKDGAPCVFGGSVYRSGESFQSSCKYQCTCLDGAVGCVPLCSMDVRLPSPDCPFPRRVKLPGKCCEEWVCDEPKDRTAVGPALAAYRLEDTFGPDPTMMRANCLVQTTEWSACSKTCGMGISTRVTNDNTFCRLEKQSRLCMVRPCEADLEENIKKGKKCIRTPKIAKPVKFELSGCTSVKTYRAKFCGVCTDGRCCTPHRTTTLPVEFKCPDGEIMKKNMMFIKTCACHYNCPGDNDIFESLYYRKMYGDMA
Source text: To evaluate the expression of CTGF in the brain of AD mice and the efficacy of DGC in vitro, brain sections of APP/PS1 transgenic mice (derived from C57BL/6J) from 1-month to 9-month-old (1-, 2-, 3-, 6- and 9-month-old, female, n = 3) were used as AD model, and brain sections of the age-matched wild-type C57BL/6J mice were used as controls (female, n = 3). The brain sections were subjected to CTGF antibody immunofluorescence staining and DGC fluorescence imaging. The brains were collected and fixed with 4% PFA. The embedded brain was then sectioned using a microtome into 5-μm thick consecutive sections. The brain sections were immersed in Tris-EDTA buffer (pH = 9.0) at 95 °C for 15 min. The brain sections were then incubated with 3% bovine serum albumin for 1.5 h. Then, the brain sections were stained overnight at 4 °C with an anti-CTGF primary antibody (dilution 1:50, Abcam, Cat#ab6992). After restoring room temperature, they were washed with TBST (pH = 7.4, 3 × 5 min) and incubated with FITC-labeled Goat Anti-Rabbit IgG (h +L) (1: dilution 1:200, Bioss, Cat#bs-0370R-FITC) for 1 h. The brain sections were washed with TBST (pH = 7.4, 3 × 5 min). Finally, overnight staining with DGC (200 μM) at 4 °C and fluorescence imaging were obtained by the CLSM system.
Brain sections from female APP/PS1 double transgenic mice were used as AD models, and brain sections of the age-matched female wild-type C57BL/6J mice were used as controls to evaluate the availability of DGC in vitro. Three-month-old APP/PS1 mice (early-stage, unestablished Aβ plaques) and 9-month-old APP/PS1 mice (late-stage, established Aβ plaques) were chosen for comparison. All mice were purchased from Beijing HFK Bioscience Co., Ltd and handled in accordance with the Ethics Committee of Beijing University of Technology, China. To avoid the interference of strong background fluorescence signals of blood in cerebral microvessels, the blood vessels were emptied by cardiac perfusion with saline and PFA before dissociating the brain. After the completion of perfusion, the brain was collected and fixed with PFA for a longer time ex vivo. The embedded brain was then sectioned using a microtome into 5-μm thick continuous sections. The brain sections were labeled with DGC or CTGF, GFAP, and Aβ antibodies. Deparaffinization was performed first and antigen retrieval was implemented with immersion of the brain sections into Tris-EDTA buffer (pH = 9.0) at 95 °C for 15 min. Then, the brain sections were incubated with 3% bovine serum albumin for 1.5 h.
For fluorescence imaging of CTGF, the brain sections were stained with anti-CTGF primary antibody (dilution 1:50, Abcam, Cat#ab6992), anti-glial fibrillary acidic protein (GFAP) primary antibody (diluted 1:400, Proteintech, Cat#16825-1-AP) or anti-Aβ 17-24 (4G8, diluted 1:1000, BioLegend, Cat#SIG-39200) at 4 °C for 4 h. After they were washed by TBST (pH = 7.4, 3 × 5 min) at room temperature, the brain sections were incubated with the secondary antibody (FITC-labeled Goat Anti-Rabbit IgG (H + L) (1: dilution 1:200, Bioss, Cat#bs-0370R-FITC) for 1 h. After the brain sections were washed by TBST (pH = 7.4, 3 × 5 min). Finally, the brain sections were co-stained by DGC (200 μM) at 4 °C overnight, and the staining results were acquired on the CLSM system.

[2] = Dynamic light scattering, hydrated particle size; format: physicochemical; settings: dynamic light scattering (Zetasizer Nano), aqueous
Source text: The fluorescence spectrophotometer (Shimadzu RF-5301, Kyoto, Japan) and NIR spectrograph FLS1000 was used to acquire the fluorescence and NIR spectra of the as-synthesized DGC. The mean hydrated particle size and size distribution of DGC were further documented by a phase analysis light-scattering technique (Zetasizer Nano, Malvern). The synthetic DGC was also observed by using a High-Resolution Transmission Electron Microscope (HRTEM, FEI Talos F200X-G2) at the accelerated voltage of 200 kV.

DGC: CTGF-targeting peptide-coated gold nanocluster: one Au26 gold nanocluster coated by eight DAG cyclic peptides, NIR-II and red fluorescence (CDAGRKQKC; also: cyclic peptide, ring not given here, eight peptides on one Au26 nanocluster via Cys Au-S bonds)
FL intensity of DGC on brain section ([1]; 3-month-old APP/PS1 mouse brain section, section 1): 0.02124
FL intensity of DGC on brain section ([1]; 3-month-old APP/PS1 mouse brain section, section 2): 0.02275
FL intensity of DGC on brain section ([1]; 3-month-old APP/PS1 mouse brain section, section 3): 0.01511
FL intensity of DGC on brain section ([1]; 9-month-old APP/PS1 mouse brain section, section 1): 0.0369
FL intensity of DGC on brain section ([1]; 9-month-old APP/PS1 mouse brain section, section 2): 0.0329
FL intensity of DGC on brain section ([1]; 9-month-old APP/PS1 mouse brain section, section 3): 0.0406
FL intensity of DGC on brain section ([1]; WT mouse brain section, section 1): 0.00435
FL intensity of DGC on brain section ([1]; WT mouse brain section, section 2): 0.0071
FL intensity of DGC on brain section ([1]; WT mouse brain section, section 3): 0.0055
average hydrated size [2]: ~ 2.85 nm
